In patent US20110263824A1 (JAPAN TOBACCO, published 2011):
Numbering of substitutions follows the chain as printed.

B1: TM2 R104EK141E (other)
chain: MSDVQSSLTGTWYNELNSKMELTANKDGTLTGKYLSKVGDVYVPYPLSGRYNLQPPAGQGVALGWAVSWENSKIHSATTWSGQFFSESSPVILTQWLLSSSTAEGDVWESTLVGNDSFTKTAPTEQQIAHAQLHCRAPRLE
notes: TM2 double mutant; also called R104-K141
B2: TM2 R104E (other)
chain: B1 chain with E141K
notes: TM2 mutant
B3: TM2 K26A (other)
chain: B1 chain with K26A, E104R, E141K
notes: TM2 mutant
B4: TM2 K73Q (other)
chain: B1 chain with K73Q, E104R, E141K
notes: TM2 mutant
B5: TM2 K141E (other)
chain: B1 chain with E104R
notes: TM2 mutant
B6: tamavidin 2 (wild type) (other)
chain: B1 chain with E104R, E141K
notes: also called TM2; TM2WT

Tests used:
fibronectin [1] = assay: summary of Example 1-10: ELISA on fibronectin-immobilized plate
Experimental: (§1) The fibronectin-binding of each low-pI TM2 was compared using a microplate to which fibronectin was immobilized. The concentration of fibronectin was adjusted to 50 μg/mL with a fixation solution exclusive for a New ELISA plate, and the fibronectin solution (50 μL) was added to each New ELISA plate (Sumitomo Bakelite), followed by shaking at 37° C. for 4 hours for immobilization. Then, the plate was washed with 0.1% Triton X-100-containing PBS (300 μL) three times and was then dried naturally.
(§2) TM2, K26A, K73Q, R104E, K141E, and R104EK141E mutants (50 μL each) were each added to the corresponding well of the plate and left at room temperature for 1 hour. The plate was washed with 300 μL/well of PBST (PBS buffer containing 0.1% Tween 20) three times. Then, biotinylated HRP diluted 5000 times with PBST containing 0.5% BSA was added at 50 μL/well and allowed to react with the mutant at room temperature for 1 hour. After washing with 300 μL/well of PBST three times, 50 μL/well of 1-Step Ultra TMB-ELISA solution was added to each well for color development.

fibronectin [2] = assay: ELISA on fibronectin-immobilized plate, biotinylated HRP detection
Experimental: as §1, §2

Row | Binder | amount of fibronectin binding relative to wild type TM2 (fibronectin [1]) | Binding of fibronectin (A450) (fibronectin [2])
1 | B1 | 10 to 20 % of wild type TM2 | 0.11 A450
2 | B2 |  | 0.7 A450
3 | B3 |  | 0.85 A450
4 | B4 |  | 0.98 A450
5 | B5 | 10 to 20 % of wild type TM2 | 0.21 A450
6 | B6 |  | 1.34 A450
